US20260042834A1 (HBM ALPHA THERAPEUTICS, published 2026)
Values joined by “and” are separate entries in the source; they are usually repeats but may differ in a detail not shown here. Equal values may be shown once.

B1: PR302341-34 (antibody, human IgG1, kappa, V domains shown)
VH: QVQLVQSGAEVKKPGASVKVSCKASGYTFTDYFMKWVRQAPGQGLEWMGVINPNQGDIFYNQKFKGRVTMTVDKSISTAYMELSRLRSDDTAVYYCARGTDRALFAYWGQGTLVTVSS
VL: DVVMTQSPLSLPVTLGQPASISCRSGQSIVHSDANTYLEWYQQRPGQSPRLLIYKVSNRFSGVPDRFSGSGSGTDFTLKISRVEAEDLGVYYCFQGSHIPWTFGGGTKVEIKR
notes: Humanized, PTM-removed variant of PR302341
B2: PR302341-60 (antibody, human IgG1, kappa, V domains shown)
VH: QVQLVQSGAEVKKPGASVKVSCKASGYTFTDYFMKWVRQAPGQRLEWMGVINPNQGDIFYNQKFKGRVTITRDTSASTAYMELSSLRSEDTAVYYCARGTDRALFAYWGQGTLVTVSS
VL: DVVMTQSPLSLPVTLGQPASISCRSGQSIVHSDANTYLEWYQQRPGQSPRLLIYKVSNRFSGVPDRFSGSGSGTDFTLKISRVEAEDLGVYYCFQGSHIPWTFGGGTKVEIKR
notes: as for B1
B3: PR302341-28 (antibody, human IgG1, kappa, V domains shown)
VH: QVQLVQSGAEVKKPGASVKVSCKASGYTFTDYFMKWVRQAPGQGLEWMGVINPNQGDIFYNQKFKGRVTMTVDKSISTAYMELSRLRSDDTAVYYCARGTDRALFAYWGQGTLVTVSS
VL: DVVMTQSPLSLPVTLGQPASISCRSGQSIVHSDGNTYLEWYQQRPGQSPRLLIYKVSNRFSGVPDRFSGSGSGTDFTLKISRVEAEDLGVYYCFQGSHIPWTFGGGTKVEIKR
notes: as for B1
B4: PR302341-48 (antibody, human IgG1, kappa, V domains shown)
VH: QVQLVQSGAEVKKPGASVKVSCKASGYTFTDYFMKWVRQAPGQGLEWMGVINPNQGDIFYNQKFKGRVTMTVDKSTSTAYMELSSLRSEDTAVYYCARGTDRALFAYWGQGTLVTVSS
VL: DVVMTQTPLSSPVTLGQPASISCRSGQSIVHSDANTYLEWYQQRPGQPPRLLIYKVSNRFSGVPDRFSGSGAGTDFTLKISRVEAEDLGVYYCFQGSHIPWTFGGGTKVEIKR
notes: as for B1
B5: PR302341-55 (antibody, human IgG1, kappa, V domains shown)
VH: QVQLVQSGAEVKKPGASVKVSCKASGYTFTDYFMKWVRQAPGQRLEWMGVINPNNADIFYNQKFKGRVTITRDTSASTAYMELSSLRSEDTAVYYCARGTDRALFAYWGQGTLVTVSS
VL: DVVMTQSPLSLPVTLGQPASISCRSGQSIVHSDGNTYLEWYQQRPGQSPRLLIYKVSNRFSGVPDRFSGSGSGTDFTLKISRVEAEDLGVYYCFQGSHIPWTFGGGTKVEIKR
notes: as for B1
B6: PR006669 (antibody, human IgG1, kappa, V domains shown)
VH: EVQLVESGGGLVQPGGSLRLSCAASGFTFSDNWMSWVRQAPGKGLEWVANIKQDGSENYYVDSVKGRFTISRDNAKNSLYLQMNSLRAEDTAVYYCSRGLALWGWGQGTLVTVSS
VL: DIVMTHSPLSLPVTPGDPASISCRSSQSLLHSTGYNYLDWYLQKPGQSPQLLIYLGSNRASGVPDRFSGSGSGTDFTLKFIRVEAEDVGVYYCMQALQTPYTFGQGTKLEIKR
B7: PR006746 (antibody, human IgG1, kappa, V domains shown)
VH: EVQLVESGGGLVQPGGSLRLSCAASGFTFSDNWMSWVRQAPGKGLEWVANIKQDSSENYYVDSVKGRFTISRDNAKNSLYLQMNSLRAEDTAVYYCSRGLALWGWGQGTLVTVSS
VL: DIVMTHSPLSLPVTPGDPASISCRSSQSLLHSTGYNYLDWYLQKPGQSPQLLIYLGSNRASGVPDRFSGSGSGTDFTLKFIRVEAEDVGVYYCMQALQTPYTFGQGTKLEIKR
B8: PR004290 (antibody, human IgG1, kappa, V domains shown)
VH: EVQLVESGGVLVQPGGSLRLSCAASGFTFSSYWMTWVRQAPGKGLEWVANIKQDGSEKYYVDSVKGRFTISRDNAKNSLFLQMNSLRAEDTAVYYCARTLIFDYWGQGTLVTVSS
VL: DIVMTQSPLSLPVTPGEPASISCRSSQSLLHSTGYNSLEWYLQKPGQSPQLLIYLGSNRASGVPDRFSGSGSGTDFTLKISRVEAEDVGIYYCMQTLQTPITFGQGTRLEIKR
notes: Series 1; human IgG1 wildtype Fc; also called Hybridoma Clone 28b3
B9: PR006745 (antibody, human IgG1, kappa, V domains shown)
VH: EVQLVESGGGLVQPGGSLRLSCAASGFTFSDNWMSWVRQAPGKGLEWVANIKQDASENYYVDSVKGRFTISRDNAKNSLYLQMNSLRAEDTAVYYCSRGLALWGWGQGTLVTVSS
VL: DIVMTHSPLSLPVTPGDPASISCRSSQSLLHSTGYNYLDWYLQKPGQSPQLLIYLGSNRASGVPDRFSGSGSGTDFTLKFIRVEAEDVGVYYCMQALQTPYTFGQGTKLEIKR

How the values were obtained:
[1] = biological target: T1, hUCN1 (NT Biotin) (human, UniProt P55089 83-122, biotin at the N-terminus); experiment: ELISA, biotin peptide on streptavidin plate
T1 construct: also called human UCN1 (NT biotin)
T1 peptide (looked up): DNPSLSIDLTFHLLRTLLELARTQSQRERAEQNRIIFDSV
Description: (§1) Streptavidin (Thermo, Cat: 21125) was diluted in PBS to a concentration of 2 μg/ml. 100 μl of diluted streptavidin was added per well to ELISA microplates, and the plates were incubated overnight at 4° C. […] 100 μL of 3,3′,5,5′-tetramethylbenzidine (TMB) substrate (Biopanda, Cat: TMB-S-003) was added, and the plates were incubated at room temperature for 15 minutes. 100 μL of ELISA stopping solution (Solarbio, Cat #: C1058) was added to terminate the reaction, and the optical density at 450 nm (OD450 nm) was determined by an ELISA plate reader (Molecular Devices, Spectra max 384 plus).

[2] = biological target: T2, CRH (NT Biotin) (human and mouse, not fully specified; biotin at the N-terminus); experiment: ELISA, biotin peptide on streptavidin plate
T2 peptide: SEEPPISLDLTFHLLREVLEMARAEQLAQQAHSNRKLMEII
Description: as §1

[3] = biological target: T3, CRH (CT Biotin) (human and mouse, C-terminal K-Biotin); experiment: ELISA, biotin peptide on streptavidin plate
T3 construct: also called Peptide 4 (CRH-Biotin)
T3 peptide: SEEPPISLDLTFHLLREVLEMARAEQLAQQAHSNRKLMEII
Description: as §1

[4] = biological target: T4, hUCN1 (CT Biotin) (human, UniProt P55089 83-122, biotin at the C-terminus); experiment: ELISA, biotin peptide on streptavidin plate
T4 construct: also called human UCN1 (CT biotin)
T4 peptide (looked up): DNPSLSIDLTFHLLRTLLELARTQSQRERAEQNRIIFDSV
Description: as §1

[5] = biological target: T5, corticotropin-releasing hormone (CRH) peptide (human and mouse, not fully specified); experiment: cell-based or functional assay
T5 peptide: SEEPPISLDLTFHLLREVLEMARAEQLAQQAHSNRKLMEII

[6] = biological target: T6, human UCN1 peptide (human, UniProt P55089 83-122); experiment: cell-based or functional assay
T6 peptide (looked up): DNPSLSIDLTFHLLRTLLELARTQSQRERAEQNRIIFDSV

[7] = biological target: T7, biotinylated CRH (human and mouse, not fully specified; biotinylated, position not stated); experiment: Octet BLI, biotinylated CRH on SA sensor
T7 construct: also called Biotin-CRH; biotin-labeled CRH
T7 peptide: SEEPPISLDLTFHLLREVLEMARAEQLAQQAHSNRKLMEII

[8] = biological target: T8, human UCN2 peptide (human, UniProt Q96RP3 72-109, limits assumed, not fully specified; biotin at N- or C-terminus in the ELISA); experiment: ELISA on streptavidin-captured hUCN2 (NT biotin) and hUCN2 (CT biotin), mAb at 100 nM and 10 nM; axis labelled RLU, scale 0-4
T8 construct: also called hUCN2; hUCN2 (NT Biotin)
T8 peptide (looked up): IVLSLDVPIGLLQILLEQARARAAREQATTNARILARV
Description: Streptavidin (Thermo, Cat: 21125) was diluted in PBS with a concentration of 2 μg/mL. 100 μL of diluted streptavidin was added per well to ELISA microplates, and the plates were incubated overnight at 4° C. Plates were blocked with ELISA blocking solution (containing 2% w/v BSA, 0.05% (v/v) Tween-20, pH 7.4 PBS buffer) at 37° C. for 1 hour, and then incubated with either 1 μg/mL hUCN1 (NT Biotin), hUCN1 (CT Biotin), hUCN2 (NT Biotin), hUCN2 (CT Biotin), hUCN3 (NT Biotin), or hUCN3 (CT Biotin) for 1 hour at 37° C. […] 100 μl of TMB Substrate (Biopanda, Cat: TMB-S-003) was added, and the plates were incubated at room temperature for 15 minutes. 100 μL of ELISA stopping solution (Solarbio, Cat #: C1058) was then added to terminate the reaction, and the OD450 nm was determined by an ELISA plate reader (Molecular Devices, Spectra max 384 plus).

[9] = biological target: T9, corticotropin-releasing hormone (CRH) peptide (human and mouse (same sequence), not fully specified); experiment: cell-based or functional assay
T9 peptide: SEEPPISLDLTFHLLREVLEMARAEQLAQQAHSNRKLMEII

Row | Binder | EC50 [1] | EC50 [2] | EC50 [3] | EC50 [4] | CHO-CRE-hCRHR1 0.5 nM CRH IC50 [5] | CHO-CRE-hCRHR1 1 nM hUCH1 IC50 [6] | Kd [7] | binding result [8] | hUCN1 IC50/ CRH IC50 [6] | koff [7] | kon [7] | hCRHR1 Luciferase Reporter Assay IC50 [9] | mCrhr1 Luciferase Reporter Assay IC50 [9]
1 | B1 | 0.019 nM and 0.016 nM | 0.025 nM and 0.038 nM | 0.027 nM | 0.03 nM and 0.022 nM | 0.616 nM | 21.9 nM and 30 nM | < 1 pM | no binding (tested: 100 nM) | – | – | – | – | –
2 | B2 | 0.026 nM | 0.043 nM | 0.036 nM | 0.036 nM | 0.878 nM | 71 nM | 14.2 pM | no binding (tested: 100 nM) | 81 fold | 3.35e-05 s⁻¹ | 2.49e+06 M⁻¹ s⁻¹ | – | –
3 | B3 | 0.026 nM | 0.052 nM | 0.037 nM | 0.032 nM | 0.267 nM | 33 nM | < 1 pM | no binding (tested: 100 nM) | 124 fold | < 1e-07 s⁻¹ | 2.63e+06 M⁻¹ s⁻¹ | – | –
4 | B4 | 0.017 nM | 0.045 nM | 0.028 nM | 0.023 nM | 0.507 nM | 30 nM | < 1 pM | no binding (tested: 100 nM) | 59 fold | < 1e-07 s⁻¹ | 1.04e+06 M⁻¹ s⁻¹ | – | –
5 | B5 | 0.013 nM | 0.022 nM | 0.019 nM | 0.018 nM | 0.105 nM | 28 nM | < 1 pM | no binding (tested: 100 nM) | 267 fold | < 1e-07 s⁻¹ | 1.2e+06 M⁻¹ s⁻¹ | – | –
6 | B6 | – | – | – | – | – | – | – | – | – | – | – | 7.38 nM | 28.9 nM
7 | B7 | – | – | – | – | – | – | – | – | – | – | – | 10 nM | 46.4 nM
8 | B8 | 1.59 nM | 0.05 nM | 0.065 nM | > 1 nM | 5.41 nM and 3.49 nM | – | – | – | – | – | – | – | –
9 | B9 | – | – | – | – | – | – | – | – | – | – | – | 13.2 nM | 76.2 nM
